What all share (test): IEDB peptide-MHC binding, purified MHC/competitive/radioactivity; filed as Kd, often an IC50 or EC50 that approximates it; ≥ and ≤ were set here for values at or beyond the usual limits of such assays
What all share (settings): source organism: Lake Victoria marburgvirus - Angola2005

The target of experiment [1] is HLA-B*07:02.
The target of experiment [2] is HLA-B*08:01.
Experiment [3] deals with HLA-A*26:01.
The target in experiment [4] is HLA-A*68:02.
In experiment [5] the target is HLA-B*44:02.
The target in experiment [6] is HLA-B*40:01.
Experiment [7] deals with HLA-A*02:03.
In experiment [8] the target is HLA-A*02:06.
Experiment [9] addresses HLA-A*24:02.
Experiment [10] addresses HLA-A*30:02.
The target of experiment [11] is HLA-A*32:01.
The target in experiment [12] is HLA-B*15:01.
For experiment [13], the target named is HLA-A*23:01.
For experiment [14], the target named is HLA-A*68:01.
Experiment [15] addresses HLA-A*30:01.

As for APFARVLNL, the equilibrium dissociation constant (Kd) in [1] worked out at 0.21 nM; in experiment [2], 67 nM.
Regarding EVASFKQAL, the dissociation constant (Kd) in experiment [1] was determined as 250 nM; in experiment [3], 86 nM; in experiment [4], 2.7 nM.
For the sequence GEYAPFARV, the Kd was 214 nM in [5] and 107 nM in [6].
Turning to GLYPQLSAI, the values for the Kd in experiment [7] and in experiment [8] were 1.4 nM and 6.9 nM, respectively.
HYSPLILAL: the dissociation constant (Kd) in experiment [9] is 64 nM.
KVKNEVASF: the Kd in experiment [10] is 158 nM; in experiment [11] it was 2.9 nM; in experiment [12] it was 5.6 nM.
For the sequence LIVKTVLEF, the dissociation constant Kd is 109 nM in experiment [13] and 0.8 nM in experiment [12].
Take TVLEFILQK: the values for the Kd in experiment [14] and in experiment [15] were 2.2 nM and 365 nM, respectively.

As a reminder, the Kd is the free concentration of one partner at which half of the binding sites on the other are occupied at equilibrium, for simple one-to-one binding.

(Values after the Immune Epitope Database (IEDB).)
